Consider three substances from paper doi:10.1101/655696.

Experiment [1] has as its target mature 30S ribosomal subunit (MRE600) (E. coli (endogenous in MRE600)) (UniProt P0AG67). As to the kind of experiment: ultrafiltration assay.
The target in experiment [2] is pre-30S particles from the ΔrbfA strain (BX41) (E. coli (endogenous in BX41)). Briefly: ultrafiltration assay.
The target in experiment [3] is mature 30S ribosomal subunit (MRE600) (E. coli (endogenous in MRE600)) (UniProt P0AG67). Briefly: co-sedimentation + other: ultrafiltration assay.
The target is the same in experiment [4]. As to the kind of experiment: co-sedimentation.

With “Cy3-IF3 (from UniProt P0A707 1-180) (natural protein)”, the average fold change in bound IF3 over background in experiment [1] was 2.2 fold; in experiment [2] it was 1.9 fold.
As to “Cy5-RbfA (ribosome binding factor A labelled with Cy5 at position 2) (from UniProt P0A7G2 1-133) (natural protein)”, the half-life of the complex in experiment [2] was over 60 min. For the same substance, the t1/2 of the complex in experiment [3] was over 30 min.
In experiment [4], “Initiation factor 3 (IF3), wild type (from UniProt P0A707 1-180) (natural protein)” had a decrease of Cy5-RbfA fluorescence in the pelleted fraction with 4 µM IF3 of over 80%.
